Reference: patent publication US20250034266A1 (ZAI LAB SHANGHAI, published 2025)

Target: T1, human CCR8 (human, UniProt P51685 1-355)
T1 construct: whole, on cells; also called hCCR8
Test: FACS of purified scFv on CHO-K1-human CCR8 cells

T1 sequence (P51685 whole entry): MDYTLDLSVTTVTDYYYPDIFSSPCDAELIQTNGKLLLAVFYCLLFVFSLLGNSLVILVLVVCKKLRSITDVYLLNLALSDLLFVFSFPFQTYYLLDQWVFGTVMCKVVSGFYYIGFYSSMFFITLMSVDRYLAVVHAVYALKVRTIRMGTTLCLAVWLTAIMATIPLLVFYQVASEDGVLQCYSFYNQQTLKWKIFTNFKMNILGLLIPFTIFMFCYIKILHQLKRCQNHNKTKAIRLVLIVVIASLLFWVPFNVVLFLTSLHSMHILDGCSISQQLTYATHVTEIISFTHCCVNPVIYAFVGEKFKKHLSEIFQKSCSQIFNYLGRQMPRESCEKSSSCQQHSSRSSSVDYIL

Binder	GeoMean AF647 (RL1-H) of CHO-K1-human CCR8 / GeoMean AF647 (RL1-H) in H12(NC)
VH-PH5-P5F7 (scFv) scFv: EVQLVESGGGLVQPGGSLKLSCAASGFTFNTYAMNWVRQASGKGLEWVGRIRSKSNFYATAYAASVKGRFTISRDDSKNTAYLQMNSLKTEDTAVYYCTRGREYGRSYAMDYWGQGTLVTVSSGGGGSGGGGSGGGGSDIVMTQSPLSLPVTPGEPASISCRSSKSLLHSNANTYLYWFLQKPGQSPQLLIYRMSNLASGVPDRFSGSGSGTDFTLKISRVEAEDVGVYYCMQHLEYPLTFGGGTKVELK	7.1
VH-PH5-P3E3 (scFv) scFv: EVQLVESGGGLVQPGGSLKLSCAASGFTFNTYAMNWVRQASGKGLEWVGRIRSKSNFYATAYAASVKGRFTISRDDSKNTAYLQMNSLKTEDTAVYYCTRGREYGSAYAMDYWGQGTLVTVSSGGGGSGGGGSGGGGSDIVMTQSPLSLPVTPGEPASISCRSSKSLLHSNANTYLYWFLQKPGQSPQLLIYRMSNLASGVPDRFSGSGSGTDFTLKISRVEAEDVGVYYCMQHLEYPLTFGGGTKVELK	3.6

Now from value to binder:

GeoMean AF647 (RL1-H) of CHO-K1-human CCR8 / GeoMean AF647 (RL1-H) in H12(NC)	Binder
10.4	VH-PH5-P7B9 (scFv) scFv: EVQLVESGGGLVQPGGSLKLSCAASGFTFNTYAMNWVRQASGKGLEWVGRIRSKSNFYATAYAASVKGRFTISRDDSKNTAYLQMNSLKTEDTAVYYCTRGREYGSSYAMDYWGQGTLVTVSSGGGGSGGGGSGGGGSDIVMTQSPLSLPVTPGEPASISCRSSKSLLHSNANTYLYWFLQKPGQSPQLLIYRMSNLASGVPDRFSGSGSGTDFTLKISRVEAEDVGVYYCMQHLEYPLTFGGGTKVELK
6	VH-PH7-P2H12 (scFv, also called VH-PH7-P2H12(S41P)) scFv: EVQLVESGGGLVQPGGSLKLSCAASGFTFNTYAMNWVRQAPGKGLEWVGRIRSKSNFYATAYAASVKGRFTISRDDSKNTAYLQMNSLKTEDTAVYYCTRGRDYGSSYAMDYWGQGTLVTVSSGGGGSGGGGSGGGGSDIVMTQSPLSLPVTPGEPASISCRSSKSLLHSNANTYLYWFLQKPGQSPQLLIYRMSNLASGVPDRFSGSGSGTDFTLKISRVEAEDVGVYYCMQHLEYPLTFGGGTKVELK
10.8	VH-PH5-P9E9 (scFv) scFv: EVQLVESGGGLVQPGGSLKLSCAASGFTFNTYAMNWVRQASGKGLEWVGRIRSKSNFYATAYAASVKGRFTISRDDSKNTAYLQMNSLKTEDTAVYYCTRGKEYGSSYAMDYWGQGTLVTVSSGGGGSGGGGSGGGGSDIVMTQSPLSLPVTPGEPASISCRSSKSLLHSNANTYLYWFLQKPGQSPQLLIYRMSNLASGVPDRFSGSGSGTDFTLKISRVEAEDVGVYYCMQHLEYPLTFGGGTKVELK
4.6	VH-PH5-P2B6(LCDR3) (scFv) scFv: EVQLVESGGGLVQPGGSLKLSCAASGFTFNTYAMNWVRQASGKGLEWVGRIRSKSNFYATAYAASVKGRFTISRDDSKNTAYLQMNSLKTEDTAVYYCTRGRDYGSSYAMDYWGQGTLVTVSSGGGGSGGGGSGGGGSDIVMTQSPLSLPVTPGEPASISCRSSKSLLHSNANTYLYWFLQKPGQSPQLLIYRMSNLASGVPDRFSGSGSGTDFTLKISRVEAEDVGVYYCMQHLKYPLTFGGGTKVELK
